In paper PMC6834639, “Molecular basis for chirality-regulated Aβ self-assembly and receptor recognition revealed by ion mobility-mass spectrometry” (Nature Communications, 2019):
Square brackets hold non-standard residues; d marks the D form. Ends that are not written are not given here.

B1: dD Aβ (17–36) (peptide)
peptide: LVFFAE[dD]VGSNKGAIIGLMV
notes: amyloid beta residues 17-36 with D-isomerized Asp; also called single D-isomerized Aβ (17–36); source: bought: Sangon Biotech Co., Ltd. (Shanghai, China)
B2: dS Aβ (17–36) (peptide)
peptide: LVFFAEDVG[dS]NKGAIIGLMV
notes: amyloid beta residues 17-36 with D-isomerized Ser; also called single D-isomerized Aβ (17–36); source: bought: Sangon Biotech Co., Ltd. (Shanghai, China)
B3: dDdS Aβ (17–36) (peptide)
peptide: LVFFAE[dD]VG[dS]NKGAIIGLMV
notes: amyloid beta residues 17-36 with D-isomerized Asp and Ser; also called co-isomerized Aβ (17–36); source: bought: Sangon Biotech Co., Ltd. (Shanghai, China)
B4: WT Aβ (1–16) (peptide)
peptide: DAEFRHDSGYEVHHQK
notes: amyloid beta residues 1-16, all L; also called wild type Aβ (1–16); source: bought: Sangon Biotech Co., Ltd. (Shanghai, China)
B5: WT Aβ (1–10) (peptide)
peptide: DAEFRHDSGY
notes: amyloid beta residues 1-10, all L; also called Aβ N-terminal fragment; source: bought: Sangon Biotech Co., Ltd. (Shanghai, China)
B6: YGGFL (peptide)
peptide: YGGFL
notes: YGGFL, used as a known model of isotropic growth
B7: WT Aβ (17–36) (peptide)
peptide: LVFFAEDVGSNKGAIIGLMV
notes: amyloid beta residues 17-36, all L; also called Aβ C-terminal fragment; source: bought: Sangon Biotech Co., Ltd. (Shanghai, China)

What was measured:
[1] = molecular target: tetrameric transthyretin (TTR) (UniProt P02766 21-147); assay: SPR; OpenSPR (Nicoya), TTR immobilised on a COOH chip by amine coupling; Aβ peptides injected (Aβ C-terminals 2.4-48 µM; Aβ (1–40/42) 0.2-20 µM); PBS pH 6.8 with 0.005% Tween 20; 150 s association, 400 s dissociation; 1:1 interaction model; conditions: both partners purified
[2] = molecular target: T1, human serum albumin (HSA) (human, UniProt P02768 25-609); assay: native MS; native IM-MS with collision-induced unfolding (CIU); 100 mM NH4OAc; Aβ (1–16) 15 µM, Cu2+ 20 µM, BSA/HSA 7.5 µM; 37 °C incubation; conditions: both partners purified
T1 construct: serum albumin, human; source: bought: Sigma-Aldrich

[3] = molecular target: T2, bovine serum albumin (BSA) (bovine, UniProt P02769 25-607); assay: as above; conditions: both partners purified
T2 construct: serum albumin, bovine; source: bought: Sigma-Aldrich

[4] = molecular target: the molecule itself; assay: native MS; IM-MS of oligomers of one Aβ fragment alone; Aβ (1–10) and Aβ (1–16) 600 µM, 10 mM NH4OAc; oligomers of many sizes seen, a printed size is the largest one
[5] = molecular target: T1, human serum albumin (HSA); assay: native MS; native IM-MS with CIU of HSA-Aβ (1–10) complexes, charge states 15+ to 18+; conditions: both partners purified
[6] = molecular target: the molecule itself; assay: native MS; IM-MS of YGGFL aggregates; mass spectrum, concentration dependence and growth curve

T2 sequence (P02769 25-607): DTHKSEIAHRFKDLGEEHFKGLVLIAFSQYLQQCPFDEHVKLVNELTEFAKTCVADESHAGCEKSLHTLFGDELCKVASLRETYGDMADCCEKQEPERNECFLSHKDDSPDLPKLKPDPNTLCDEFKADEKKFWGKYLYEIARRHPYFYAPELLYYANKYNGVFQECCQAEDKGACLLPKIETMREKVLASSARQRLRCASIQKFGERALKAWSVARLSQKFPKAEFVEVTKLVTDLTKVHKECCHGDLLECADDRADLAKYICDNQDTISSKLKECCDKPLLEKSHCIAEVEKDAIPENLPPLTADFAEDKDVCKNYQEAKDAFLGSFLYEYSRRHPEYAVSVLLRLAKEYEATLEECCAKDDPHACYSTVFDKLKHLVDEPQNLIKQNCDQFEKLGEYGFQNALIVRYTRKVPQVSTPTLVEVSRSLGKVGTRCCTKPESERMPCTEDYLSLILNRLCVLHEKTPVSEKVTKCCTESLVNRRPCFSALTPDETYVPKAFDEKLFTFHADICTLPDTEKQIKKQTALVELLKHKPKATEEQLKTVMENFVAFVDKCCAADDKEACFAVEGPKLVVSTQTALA

Binder	Kd [1] [µM]	koff [1] [s⁻¹]	kon [1] [M⁻¹ s⁻¹]	other results
B1	149	0.132	990	
B2	118	0.114	1160	
B3	83.1	0.102	1930	
B4				binding result [2]: binds; binding result [3]: binds; binding result [4]: binds
B5				binding result [5]: binds
B6				binding result [6]: binds
B7	11.5	0.008	690	
